# Measurements as given in article PMC2690590, “Functional recombinant MHC class II molecules and high-throughput peptide-binding assays” (Immunome Research, 2009).
# What was measured:
# Experiment in all cases: AlphaScreen or HTRF
# [1] = biological target: DR1GrpE: DR1 α chain 1–181 and β chain 1–190 fused C-terminally to GrpE, not biotinylated (human)
# [2] = biological target: DR2a (DRA*0101/DRB5*0101) with non-biotinylated β chain, competitive LOCI assay (human)
# [3] = biological target: DR2a (DRA*0101/DRB5*0101), biotinylated, direct LOCI assay at pH 6 (human)
# [4] = biological target: DRB1*0813: DRA*0101/DRB1*0813 (human)
substance,measurement,setting,value
Flu HA1194-202 peptide […],IC50,[1],42 nM
same,IC50,[2],529 nM
same,Kd,[3],167 nM
same,Kd,[4],276 nM
